Test results taken from patent publication US7927864B2, “Methods, kits, and compositions for detecting enzyme activity” (Wake Forest University Health Sciences, priority 2006, dated 2011).

What was measured:
[1] = test system: ADAMTS13; test: FRET measurement of ADAMTS13 cleavage of fluorescein-labeled recombinant VWF73 peptide in plasma; assay type: biochemical
Method: (§1) The working peptide was prepared by dissolving the peptide pellets in DMSO and then diluted with assay buffer, 5 mM Bis-Tris, 25 mM CaCl2, 0.005% Tween 20 at pH 6.0 to a final concentration of 4.5 μM. Pooled Normal Plasma (PNP) was used as a source of ADAMTS13. Heat inactivated PNP, heated overnight at 56° C., and known ADAMTS13-deficient patient plasma were used as negative controls. All samples were diluted 1 in 8 with assay buffer to reduce the ionic strength. Reactions were carried out in 96 well plates using 100 μL of dilute plasma and 100 μL of working peptide solution. The rate of fluorescence increase with time was monitored by a fluorometer.
(§2) FIG. 2 depicts fluorescence of the recombinant peptide during incubation. […] Each experiment was performed in triplicate and mean values are shown. Thus, it is apparent that the fluorescence increase resulting from the separation of fluors by ADAMTS13 cleavage of a labeled peptide substrate is measurable and can be used for FRET based enzyme assays.
(§3) FIG. 3 depicts the rates of change of fluorescence produced by dilutions of PNP in heat inactivated PNP. Undiluted PNP represents 100% ADAMTS13 enzyme activity for purposes of determining quantitative enzyme activity. Each point represents the mean±SEM of triplicate determination. Thus, it is apparent that recombinant fluorescein labeled peptides can be used as effective substrates in quantitative FRET based assays of ADAMTS13. Further techniques for quantitative analysis of enzyme activity are well known to skilled artisans.

[2] = molecular target: T1, ADAMTS13 (Homo sapiens, UniProt Q76LX8); test: as above; assay type: biochemical; settings: incubation with pooled normal plasma (PNP) as source of ADAMTS13; peptide 4.5 μM working solution, plasma diluted 1 in 8, pH 6.0
T1 construct: Pooled Normal Plasma (PNP) was used as a source of ADAMTS13; from tissue; host or cells: pooled normal plasma (PNP); the substrate peptide was made in M15 E. coli
T1 sequence (Q76LX8 75-1427): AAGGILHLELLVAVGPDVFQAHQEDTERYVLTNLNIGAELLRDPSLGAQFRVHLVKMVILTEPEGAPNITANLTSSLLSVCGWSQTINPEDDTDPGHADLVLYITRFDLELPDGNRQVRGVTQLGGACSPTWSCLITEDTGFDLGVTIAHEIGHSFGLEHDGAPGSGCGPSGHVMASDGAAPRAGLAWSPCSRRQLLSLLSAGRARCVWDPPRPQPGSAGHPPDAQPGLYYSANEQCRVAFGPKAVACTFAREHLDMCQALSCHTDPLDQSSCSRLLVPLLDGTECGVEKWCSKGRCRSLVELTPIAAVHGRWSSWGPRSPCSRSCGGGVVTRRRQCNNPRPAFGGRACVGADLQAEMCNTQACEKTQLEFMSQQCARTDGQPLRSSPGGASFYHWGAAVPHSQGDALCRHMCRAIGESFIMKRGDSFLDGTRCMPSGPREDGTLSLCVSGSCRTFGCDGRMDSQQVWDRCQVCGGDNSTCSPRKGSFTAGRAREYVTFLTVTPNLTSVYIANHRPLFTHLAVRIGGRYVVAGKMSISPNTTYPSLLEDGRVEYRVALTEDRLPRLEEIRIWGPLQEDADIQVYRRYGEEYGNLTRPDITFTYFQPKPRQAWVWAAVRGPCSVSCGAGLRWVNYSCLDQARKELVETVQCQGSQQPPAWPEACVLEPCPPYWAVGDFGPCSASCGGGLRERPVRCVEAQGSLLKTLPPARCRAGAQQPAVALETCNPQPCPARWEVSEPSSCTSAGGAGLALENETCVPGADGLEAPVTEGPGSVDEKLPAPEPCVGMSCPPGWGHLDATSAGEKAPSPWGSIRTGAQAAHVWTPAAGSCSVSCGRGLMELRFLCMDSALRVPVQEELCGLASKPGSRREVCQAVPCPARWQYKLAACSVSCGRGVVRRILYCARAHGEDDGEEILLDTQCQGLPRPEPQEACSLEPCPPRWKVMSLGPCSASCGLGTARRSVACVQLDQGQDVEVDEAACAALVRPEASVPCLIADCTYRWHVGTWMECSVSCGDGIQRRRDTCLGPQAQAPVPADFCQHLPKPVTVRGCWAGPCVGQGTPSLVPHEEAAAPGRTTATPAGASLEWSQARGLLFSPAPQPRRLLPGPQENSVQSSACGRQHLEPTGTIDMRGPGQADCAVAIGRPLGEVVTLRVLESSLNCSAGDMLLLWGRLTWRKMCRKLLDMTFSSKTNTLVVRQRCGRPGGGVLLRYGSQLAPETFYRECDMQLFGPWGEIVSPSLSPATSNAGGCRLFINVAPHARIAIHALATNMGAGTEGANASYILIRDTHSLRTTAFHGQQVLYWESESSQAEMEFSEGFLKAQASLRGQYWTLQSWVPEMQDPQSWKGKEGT
Method: as §1, §2, §3

B1: recombinant peptide: Recombinant His-tagged 73 amino acid VWF A2 peptide (SEQ ID NO: 1); Q1599 and P1611 mutated to cysteines, both labeled with fluorescein (conjugate)
chain: DRECAPNLVYMVTGNCASDEIKRLPGDIQVVPIGVGPNANVQELERIGWPNAPILIQDFETLPREAPDLVLQR
modifications: fluorescein labels on cysteines; His-tag; This is a 73 amino acid fragment of native von Willebrand factor, substituted with cysteines at positions 4 and 16.
notes: Q1599 and P1611 mutated to cysteines, both labeled with fluorescein
[1]; incubation with heat inactivated PNP (negative control)
  fluorescence of the recombinant peptide during incubation: only minimal change in fluorescence
[1]; incubation with plasma samples from TTP patients with no ADAMTS13 activity (negative control)
  fluorescence of the recombinant peptide during incubation: only minimal change in fluorescence
[2]
  fluorescence of the recombinant peptide during incubation: steady increase of fluorescence over time
